Assay results from article PMC2734569, “Functional mapping of the fission yeast DNA polymerase δ B-subunit Cdc1 by site-directed and random pentapeptide insertion mutagenesis” (BMC Molecular Biology, 2009).

T1: Cdc1-E9 (Schizosaccharomyces pombe, UniProt P87324 1-462, Tyr-GlyGlyTyrProTyr-Gly)
T1 construct: Cdc1, S. pombe, with a pentapeptide inserted after residue 124; source: yeast two-hybrid fusion, in S. cerevisiae CTY10-5d
T1 sequence (looked up): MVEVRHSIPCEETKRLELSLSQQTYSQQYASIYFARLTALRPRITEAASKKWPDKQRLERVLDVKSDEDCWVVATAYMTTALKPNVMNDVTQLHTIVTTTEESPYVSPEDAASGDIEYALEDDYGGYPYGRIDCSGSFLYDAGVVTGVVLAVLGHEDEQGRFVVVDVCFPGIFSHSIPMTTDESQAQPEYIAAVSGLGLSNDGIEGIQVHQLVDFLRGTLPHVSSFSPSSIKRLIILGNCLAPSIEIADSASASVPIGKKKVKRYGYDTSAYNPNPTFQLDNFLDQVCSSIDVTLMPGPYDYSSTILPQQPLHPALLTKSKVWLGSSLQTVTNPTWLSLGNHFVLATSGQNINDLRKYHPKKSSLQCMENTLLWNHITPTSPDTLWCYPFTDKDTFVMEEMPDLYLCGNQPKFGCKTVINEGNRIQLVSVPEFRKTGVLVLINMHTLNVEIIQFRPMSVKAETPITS

T2: Cdc1-J21 (Schizosaccharomyces pombe, UniProt P87324 1-462, Leu-GlyValProGlnLeu-Asp)
T2 construct: Cdc1, S. pombe, with a pentapeptide inserted after residue 275; source: yeast two-hybrid fusion, in S. cerevisiae CTY10-5d
T2 sequence (looked up): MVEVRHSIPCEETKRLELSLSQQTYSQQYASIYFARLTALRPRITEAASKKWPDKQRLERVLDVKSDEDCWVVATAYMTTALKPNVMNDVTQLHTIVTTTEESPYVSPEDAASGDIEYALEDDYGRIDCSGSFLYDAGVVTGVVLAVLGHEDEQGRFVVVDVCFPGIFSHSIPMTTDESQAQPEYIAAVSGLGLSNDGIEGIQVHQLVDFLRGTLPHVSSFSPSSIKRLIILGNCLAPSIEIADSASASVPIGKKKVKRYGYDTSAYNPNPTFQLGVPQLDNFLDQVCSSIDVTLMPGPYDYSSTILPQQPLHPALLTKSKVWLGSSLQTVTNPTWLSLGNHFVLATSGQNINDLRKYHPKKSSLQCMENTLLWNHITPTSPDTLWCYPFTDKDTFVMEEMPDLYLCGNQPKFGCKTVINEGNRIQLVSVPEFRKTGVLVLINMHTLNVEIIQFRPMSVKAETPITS

T3: Cdc1-J1 (Schizosaccharomyces pombe, UniProt P87324 1-462, Thr-GlyValProLeuThr-Gly)
T3 construct: Cdc1, S. pombe, with a pentapeptide inserted after residue 141; source: yeast two-hybrid fusion, in S. cerevisiae CTY10-5d
T3 sequence (looked up): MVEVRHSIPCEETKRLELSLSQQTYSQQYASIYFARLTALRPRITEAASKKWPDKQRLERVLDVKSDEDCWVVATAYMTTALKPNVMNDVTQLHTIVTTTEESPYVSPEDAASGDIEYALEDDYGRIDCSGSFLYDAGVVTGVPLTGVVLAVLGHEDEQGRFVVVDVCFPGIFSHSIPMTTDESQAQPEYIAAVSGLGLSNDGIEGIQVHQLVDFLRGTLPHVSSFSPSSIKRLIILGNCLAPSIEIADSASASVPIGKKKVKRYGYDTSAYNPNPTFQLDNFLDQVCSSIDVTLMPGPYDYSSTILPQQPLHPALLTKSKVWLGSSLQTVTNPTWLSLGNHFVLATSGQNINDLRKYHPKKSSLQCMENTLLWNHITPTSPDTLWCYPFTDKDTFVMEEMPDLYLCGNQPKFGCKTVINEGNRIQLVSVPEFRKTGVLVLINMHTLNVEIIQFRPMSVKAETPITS

B1: Pol3 (fission yeast DNA polymerase delta catalytic subunit) (natural protein, Schizosaccharomyces pombe, UniProt P30316 1-1086, looked up)
chain: MTDRSSNEGVVLNKENYPFPRRNGSIHGEITDVKRRRLSERNGYGDKKGSSSKEKTSSFEDELAEYASQLDQDEIKSSKDQQWQRPALPAINPEKDDIYFQQIDSEEFTEGSVPSIRLFGVTDNGNSILVHVVGFLPYFYVKAPVGFRPEMLERFTQDLDATCNGGVIDHCIIEMKENLYGFQGNEKSPFIKIFTTNPRILSRARNVFERGEFNFEELFPVGVGVTTFESNTQYLLRFMIDCDVVGMNWIHLPASKYQFRYQNRVSNCQIEAWINYKDLISLPAEGQWSKMAPLRIMSFDIECAGRKGVFPDPSIDPVIQIASIVTQYGDSTPFVRNVFCVDTCSQIVGTQVYEFQNQAEMLSSWSKFVRDVDPDVLIGYNICNFDIPYLLDRAKSLRIHNFPLLGRIHNFFSVAKETTFSSKAYGTRESKTTSIPGRLQLDMLQVMQRDFKLRSYSLNAVCSQFLGEQKEDVHYSIITDLQNGTADSRRRLAIYCLKDAYLPQRLMDKLMCFVNYTEMARVTGVPFNFLLARGQQIKVISQLFRKALQHDLVVPNIRVNGTDEQYEGATVIEPIKGYYDTPIATLDFSSLYPSIMQAHNLCYTTLLDSNTAELLKLKQDVDYSVTPNGDYFVKPHVRKGLLPIILADLLNARKKAKADLKKETDPFKKAVLDGRQLALKVSANSVYGFTGATNGRLPCLAISSSVTSYGRQMIEKTKDVVEKRYRIENGYSHDAVVIYGDTDSVMVKFGVKTLPEAMKLGEEAANYVSDQFPNPIKLEFEKVYFPYLLISKKRYAGLFWTRTDTYDKMDSKGIETVRRDNCPLVSYVIDTALRKMLIDQDVEGAQLFTKKVISDLLQNKIDMSQLVITKALSKTDYAAKMAHVELAERMRKRDAGSAPAIGDRVAYVIIKGAQGDQFYMRSEDPIYVLENNIPIDAKYYLENQLSKPLLRIFEPILGEKASSLLHGDHTRTISMAAPSVGGIMKFAVKVETCLGCKAPIKKGKTALCENCLNRSAELYQRQVAQVNDLEVRFARLWTQCQRCQGSMHQDVICTSRDCPIFYMRIAEHKKLQQSVDLLKRFDEMSW
notes: DNA polymerase delta catalytic subunit Pol3, S. pombe; prey plasmid named pACT-Pol3 in the results and pGAD2F-Pol3 in the methods; also called Gal4-Pol3; pACT-Pol3; source: yeast two-hybrid fusion, in S. cerevisiae CTY10-5d
B2: Cdc27 (fission yeast DNA polymerase delta C-subunit) (natural protein, Schizosaccharomyces pombe, UniProt P30261 1-372, looked up)
chain: MEEWRNFLDIKVINESSLVTVDNLSLQLDISSEKAQEYLNMFYQGNDFLYPIYLIHGQPIDDEINLEIDEESQPISNFPVLQYILCDKSSLQEKQSRLKSGYKTVIFALSSAPLSDFDELLPAVYEIREKDVLYKKEDADKYGFIFNENSVPRVLKKAPSTHSPQLSVPSKTSTIDKTDTRSTEKTKGKDIFSNARNQKGNSSRKNKKAPLENHKEKEPLLPKEEKLSEQAKRERDDLKNIMQLEDESVSTTSVHDSEDDNLDSNNFQLEIGTEAKSAAPDEPQEIIKSVSGGKRRGKRKVKKYATTKDEEGFLVTKEEEVWESFSEDENISTGTSNVVRNKPTTVNIATKKKNTAQSKPQQKSIMSFFGKK
notes: DNA polymerase delta C-subunit Cdc27, S. pombe; prey plasmid pGAD2F-Cdc27; also called pGAD2F-Cdc27; source: yeast two-hybrid fusion, in S. cerevisiae CTY10-5d

How the values were obtained:
[1] = target: Cdc1-J17 (Schizosaccharomyces pombe) (UniProt P87324); assay: two-hybrid; LexA-Cdc1 bait (pBTM116 or pBTM116BN) with Gal4-Pol3 prey and co-expressed c-myc-tagged Cdc27 (pAA-Cdc27) in S. cerevisiae CTY10-5d; ONPG liquid culture beta-galactosidase assay, mean of triplicates, as percent of wild-type Cdc1
Cdc1-E9 [2] = target: T1, Cdc1-E9; assay: as above; settings: partners not purified
Cdc1-J21 = target: T2, Cdc1-J21; assay: two-hybrid; LexA-Cdc1 bait (pBTM116 or pBTM116BN) with Gal4 activation domain-Cdc27 prey (pGAD2F-Cdc27) in S. cerevisiae CTY10-5d; ONPG liquid culture beta-galactosidase assay, mean of triplicates, as percent of wild-type Cdc1; settings: partners not purified
Cdc1-E9 [3] = target: T1, Cdc1-E9; assay: as above; settings: partners not purified
Cdc1-J1 = target: T3, Cdc1-J1; assay: as above; settings: partners not purified
[4] = target: Cdc1-J17 (Schizosaccharomyces pombe) (UniProt P87324); assay: as above

Binder	two-hybrid beta-galactosidase activity, % of wild-type Cdc1 [1]	two-hybrid beta-galactosidase activity, % of wild-type Cdc1 (Cdc1-E9 [2])	two-hybrid beta-galactosidase activity, % of wild-type Cdc1 (Cdc1-J21)	two-hybrid beta-galactosidase activity, % of wild-type Cdc1 (Cdc1-E9 [3])	two-hybrid beta-galactosidase activity, % of wild-type Cdc1 (Cdc1-J1)	two-hybrid beta-galactosidase activity, % of wild-type Cdc1 [4]
B1	2%	24%				
B2			< 1%	< 1%	< 1%	< 1%
